Laboratory results published in patent US4944948A, “EGF/Liposome gel composition and method” (Liposome Technology, Inc., priority 1989, dated 1990).
Read-outs that look alike come from different tables or passages of the source.

Assays:
[1] = 37° C., 25% human plasma/saline, 0.08 μm filter
Procedure: Liposome formulations were evaluated in vitro by release rates of 125 I-rh-EGF into the receiver compartments of percutaneous absorption cells that were continuously perfused with 25% pooled human plasma/saline.
A conventional two-chamber absorption cell, using a bath temperature of 37° C., was employed (Bronaugh). A 25 mm, 0.08 μm diameter Nuclepore (Pleasanton, Calif.) polycarbonate filter was used to separate the donor from the flow-through acceptor compartment. […] The ^125 I-rh-EGF preparation was mixed with an equal quantity of 25% pooled human plasma/isotonic saline and 200 μl aliquots were immediately applied to the donor compartments. Parafilm was used to occlude the donor compartment and prevent evaporative loss. The perfusate was collected by fraction collector into scintillation vials and mounted in a Packard TriCarg 20000. rh-EGF flux was calculated from the specific activity (DPM per μg peptide). Clearance rate half-lives were determined for individual percutaneous absorption cells as described below.
In this single phase system, it is possible to determine the concentration of peptide remaining in the donor compartment by subtracting cumulative peptide in the measured in the receiver compartment from total peptide applied to the donor compartment. […]

[2] = for % Lost (of total dose administered): from first order rate constants
Procedure: The amount of radioactivity remaining in the injected eye was measured for up to 96 hours after injection (until at least 90% of the initial radioactivity had disappeared). An external NaI crystal detector/ratemeter (The Nucleus Model L) was placed directly over the eye and radioactivity measured for 2 minutes and recorded on a chart recorder. […] The mean chart deflection during each recording was taken as the measurement at that time point. The first reading was taken immediately after injection ("zero time") and subsequent measurements were converted to a percentage of this initial amount.
Individual radioactivity versus time data were recorded for each animal, and the mean values for each animal group (N=4-6) were calculated.
Each plot was used to calculate first order rate constants for EGF disappearance from the eye for each formulation by a non linear least squares fitting method (RSTRIP, MicroMath, Salt Lake City, Utah).
At =A0 * e ^-kt or 1n(At)=1n (A0)-kt
where k=0.693 / t1/2, the amount of EGF lost from the eye during any day can be calculated.

[3] = rabbit, subconjunctival injection

CC[C@H](C)[C@@H]1NC(=O)[C@H](Cc2ccc(O)cc2)NC(=O)CNC(=O)[C@H](C(C)C)NC(=O)[C@H](C(C)C)NC(=O)[C@@H](NC(=O)[C@H](CC(N)=O)NC(=O)[C@@H]2CSSC[C@@H]3NC(=O)[C@H](Cc4ccc(O)cc4)NC(=O)CNC(=O)[C@H](CC(=O)O)NC(=O)[C@H](Cc4c[nH]cn4)NC(=O)[C@H](CO)NC(=O)[C@H](CC(C)C)NC(=O)[C@@H]4CCCN4C(=O)[C@@H](NC(=O)[C@H](CCC(=O)O)NC(=O)[C@H](CO)NC(=O)[C@H](CC(=O)O)NC(=O)[C@H](CO)NC(=O)[C@@H](N)CC(N)=O)CSSC[C@H](NC(=O)[C@H](C(C)C)NC(=O)CNC(=O)[C@H](CC(=O)O)NC(=O)[C@H](Cc4c[nH]cn4)NC(=O)[C@H](CC(C)C)NC3=O)C(=O)N[C@@H](CCSC)C(=O)N[C@@H](Cc3ccc(O)cc3)C(=O)N[C@@H]([C@@H](C)CC)C(=O)N[C@@H](CCC(=O)O)C(=O)N[C@@H](C)C(=O)N[C@@H](CC(C)C)C(=O)N[C@@H](CC(=O)O)C(=O)N[C@@H](CCCCN)C(=O)N[C@@H](Cc3ccc(O)cc3)C(=O)N[C@@H](C)C(=O)N2)CSSC[C@@H](C(=O)N[C@@H](CCC(N)=O)C(=O)N[C@@H](Cc2ccc(O)cc2)C(=O)N[C@@H](CCCNC(=N)N)C(=O)N[C@@H](CC(=O)O)C(=O)N[C@@H](CC(C)C)C(=O)N[C@@H](CCCCN)C(=O)N[C@@H](Cc2c[nH]c3ccccc23)C(=O)N[C@@H](Cc2c[nH]c3ccccc23)C(=O)N[C@@H](CCC(=O)O)C(=O)N[C@@H](CC(C)C)C(=O)N[C@@H](CCCNC(=N)N)C(=O)O)NC(=O)[C@H](CCCNC(=N)N)NC(=O)[C@H](CCC(=O)O)NC(=O)CNC1=O [Free EGF, Epidermal Growth Factor]
Half-life of EGF release in vitro (slow phase for liposomes) [1]: about 1.8 hours | % Lost (of total dose administered) ([2]; Day 1, includes initial burst): 100% | % Lost (of total dose administered) ([2]; Day 2): 0% | % Lost (of total dose administered) ([2]; Day 3): 0% | % Lost (of total dose administered) ([2]; Day 4): 0% | % Lost (of total dose administered) ([2]; Day 5): 0% | % Lost (of total dose administered) ([2]; Day 6): 0% | % Lost (of total dose administered) ([2]; Day 7): 0% | Dose remaining in the eye ([2]; after 3 hours): Less than 15% | EGF available at the conjunctival site ([2]; one day after administration): substantially no EGF was available | Half life of EGF retention in the eye [2, 3]: 1 h | Half-life of EGF disappearance from the eye [2, 3]: 1.0 h | Half life of EGF retention in the eye ([2]; rabbit, subconjunctival injection, listed as unencapsulated EGF): 1.0 h | Rate constant of EGF disappearance from the eye ([2]; rabbit, subconjunctival, fit of loglinear portion after initial burst): 0.69 h⁻¹
